PMC6235402, “Paired Immunoglobulin-like Type 2 Receptor Alpha G78R variant alters ligand binding and confers protection to Alzheimer's disease” (PLoS Genetics, 2018)
Read-outs that look alike come from different tables or passages of the source.

Key:
[1] = target: PILRA R78 (AD protective) variant, G78R (rs1859788), full length (human) (UniProt Q9UKJ1); assay: flow cytometry on cells; 293T cells transfected with full-length PILRA variants, 48 h; incubated with soluble NPDC1-mFc at 50 ug/ml for 30 min on ice; anti-PILRA (APC) and anti-mouse IgG2a (FITC); percent of double-positive cells relative to G78 PILRA (100%)
[2] = target: PILRA Q140A, full length (human) (UniProt Q9UKJ1); assay: as above
[3] = target: PILRA S141A, full length (human) (UniProt Q9UKJ1); assay: as above
[4] = target: PILRA R78 (AD protective) variant, G78R (rs1859788), full length (human) (UniProt Q9UKJ1); assay: as above; remark: listed apart in the source
[5] = target: PILRA S80G, full length (human) (UniProt Q9UKJ1); assay: as above
[6] = target: PILRA F76A, full length (human) (UniProt Q9UKJ1); assay: as above
[7] = target: PILRA R72A, full length (human) (UniProt Q9UKJ1); assay: as above
[8] = target: T1, PILRA G78 (AD risk) extracellular domain (1-196 aa) fused to murine IgG2a Fc (human, UniProt Q9UKJ1 20-196, R78G (by the check's mend)); assay: SPR; NPDC1-His binding to mIgG2a-tagged PILRA variants (S6C Fig); who was immobilised and the conditions not given; conditions: both partners purified
T1 construct: signal peptide in the construct; PILRA, human, ECD residues 1-196 of AJ400841, glycine at position 78; also called G78 PILRA-mFc; PILRA-mFC; not shown: Fc (murine IgG2a), C-terminal, kept

[9] = target: PILRA R78 (AD protective, G78R) extracellular domain (1-196 aa) fused to murine IgG2a Fc (human) (UniProt Q9UKJ1); assay: as above

Sequence of PILRA R78 (AD protective) variant, G78R (rs1859788), full length (human) (Q9UKJ1 20-303, stated change not applied): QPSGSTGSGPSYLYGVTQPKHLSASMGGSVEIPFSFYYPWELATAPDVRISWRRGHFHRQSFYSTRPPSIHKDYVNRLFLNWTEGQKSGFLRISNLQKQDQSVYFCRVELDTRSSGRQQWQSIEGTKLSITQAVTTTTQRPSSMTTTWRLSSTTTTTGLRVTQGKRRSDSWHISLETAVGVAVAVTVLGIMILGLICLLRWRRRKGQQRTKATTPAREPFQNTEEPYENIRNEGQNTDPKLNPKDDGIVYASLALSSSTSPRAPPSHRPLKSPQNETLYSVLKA
T1 sequence (Q9UKJ1 20-196 R78G): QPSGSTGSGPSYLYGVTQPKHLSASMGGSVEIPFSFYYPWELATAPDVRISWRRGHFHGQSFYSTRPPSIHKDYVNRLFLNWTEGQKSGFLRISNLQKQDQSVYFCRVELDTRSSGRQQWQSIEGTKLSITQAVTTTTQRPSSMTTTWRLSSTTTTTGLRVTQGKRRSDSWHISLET
Sequence of PILRA Q140A, full length (human) (Q9UKJ1 20-303 Q140A): as the sequence (Q9UKJ1 20-303, stated change not applied) above, with Q121A counted along it
Sequence of PILRA R72A, full length (human) (Q9UKJ1 20-303 R72A): as the sequence (Q9UKJ1 20-303, stated change not applied) above, with R53A counted along it
Sequence of PILRA S141A, full length (human) (Q9UKJ1 20-303 S141A): as the sequence (Q9UKJ1 20-303, stated change not applied) above, with S122A counted along it
Sequence of PILRA F76A, full length (human) (Q9UKJ1 20-303 F76A): as the sequence (Q9UKJ1 20-303, stated change not applied) above, with F57A counted along it
Sequence of PILRA S80G, full length (human) (Q9UKJ1 20-303 S80G): as the sequence (Q9UKJ1 20-303, stated change not applied) above, with S61G counted along it

B1: NPDC1 extracellular domain (1-190 aa) fused to murine IgG2a Fc (Fc fusion)
chain: GHPDVAACPGSLDCALKRRARCPPGAHACGPCLQPFQEDQQGLCVPRMRRPPGGGRPQPRLEDEIDFLAQELARKESGHSTPPLPKDRQRLPEPATLGFSARGQGLELGLPSTPGTPTPTPHTSLGSPVSSDPVHMSPLEPRGGQGDGLALVLILA
With B1 the percent of G78 PILRA binding [1] was 44 % of G78, the percent of G78 PILRA binding [2] was 22 % of G78 and the percent of G78 PILRA binding [3] was 117 % of G78. For the same binder, the percent of G78 PILRA binding [4] was 35 % of G78, the percent of G78 PILRA binding [5] was 60 % of G78 and the percent of G78 PILRA binding [6] was 20 % of G78. For the same binder, the percent of G78 PILRA binding [7] was 20 % of G78.

B2: NPDC1-His (ligand, human, UniProt Q9NQX5 35-190, looked up)
chain: GHPDVAACPGSLDCALKRRARCPPGAHACGPCLQPFQEDQQGLCVPRMRRPPGGGRPQPRLEDEIDFLAQELARKESGHSTPPLPKDRQRLPEPATLGFSARGQGLELGLPSTPGTPTPTPHTSLGSPVSSDPVHMSPLEPRGGQGDGLALVLILA
notes: the construct and its limits are not described in the methods; Likely a soluble extracellular construct
B2 was tested, and the Kd [8] was 16.8 nM, the kon [8] was 22000 M⁻¹ s⁻¹ and the Kd [9] was 76.5 nM. For the same binder, the kon [9] was 6800 M⁻¹ s⁻¹.
